From FireProtDB (doi:10.1021/bi002792f)

B1: Lysozyme C, P61626 (parent)
chain: MKALIVLGLVLLSVTVQGKVFERCELARTLKRLGMDGYRGISLANWMCLAKWESGYNTRATNYNAGDRSTDYGIFQINSRYWCNDGKTPGAVNACHLSCSALLQDNIADAVACAKRVVRDPQGIRAWVAWRNRCQNRDVRQYVQGCGV

Variants of: B1
Conditions: Homo sapiens, pH 2.7, Thermal, DSC, Gly-HCl 0.05 M, reversible: yes, structure 1LZ1, whole UniProt chain shown

Variant	ddG of mutation (higher = less stable) (64.9 °C) [kcal/mol]	heat capacity change of unfolding (64.9 °C) [kcal/mol/K]	unfolding enthalpy (calorimetric) (64.9 °C) [kcal/mol]	Tm [°C]	change of melting temperature, mutant - wild type (higher = more stable) [°C]	heat capacity change of unfolding [kcal/mol/K]
MKALIVLGLVLLSVTVQGKVFERCELARTLKRLGMDGYRGISLANWMCLAKWESGYNTRATNYNAGDRSTDYGIFQINSRYWCNDGKTPGAVNACHLSCSALLQDNIADATACAKRVVRDPQGIRAWVAWRNRCQNRDVRQYVQGCGV	0.67	1.12	101	62.6	-2.3	1.12
MKALIVLGLVLLSVTVQGKVFERCELARTLKRLGMDGYRGISLANWMCLAKWESGYNTRATNYNAGDRSTDYGIFQINSRYWCNDGKTPGAVNACHLSCSALLQDNIADSVACAKRVVRDPQGIRAWVAWRNRCQNRDVRQYVQGCGV		2.01	104	67.5	2.6	2.01
MKALIVLGLVLLSVTVQGKVFERCETARTLKRLGMDGYRGISLANWMCLAKWESGYNTRATNYNAGDRSTDYGIFQINSRYWCNDGKTPGAVNACHLSCSALLQDNIADAVACAKRVVRDPQGIRAWVAWRNRCQNRDVRQYVQGCGV	3.73	1.39	107	52.5	-12.4	1.39
MKALIVLGLVLLSVTVQGKVFERCELARTLKRLGMDGYRGISLANWMCLAKWESGYNTRATNYNAGDRSTDYGIFQINSRYWCNDGKTPGAVNACHLSCSALLQDNIADAVACSKRVVRDPQGIRAWVAWRNRCQNRDVRQYVQGCGV	1	1.29	103	61.6	-3.3	1.29
MKALIVLGLVLLSVTVQGKVFERCELARTLKRLGMDGYRGISLANWMCLSKWESGYNTRATNYNAGDRSTDYGIFQINSRYWCNDGKTPGAVNACHLSCSALLQDNIADAVACAKRVVRDPQGIRAWVAWRNRCQNRDVRQYVQGCGV	0.33	1.65	111	63.9	-1	1.65
MKALIVLGLVLLSVTVQGKVFERCELARTLKRLGMDGYRGISLANWMCLAKWESGYNTRATNYNAGDRSTDYGIFQINSRYWCNDGKTPGAVNACHLSCSALLQDNIADAVACAKRTVRDPQGIRAWVAWRNRCQNRDVRQYVQGCGV		1.41	104	63.3	-1.6	1.41
MKALIVLGLVLLSVTVQGKVFERCELSRTLKRLGMDGYRGISLANWMCLAKWESGYNTRATNYNAGDRSTDYGIFQINSRYWCNDGKTPGAVNACHLSCSALLQDNIADAVACAKRVVRDPQGIRAWVAWRNRCQNRDVRQYVQGCGV		1.27	106	64.8	-0.1	1.27
MKALIVLGLVLLSVTVQGKVFERCELARTLKRLGMDGYRGISLANWMCLAKWESGYNTRATNYNAGDRSTDYGIFQINSRYWCNDGKTPGAVNACHLSCSALLQDNIADAVACAKRVTRDPQGIRAWVAWRNRCQNRDVRQYVQGCGV		1.53	107			
